Test results as given in the supplement of paper PMC9170038.

Test system: MS2 coat protein
Experiment: apparent KD of MS2 coat protein; designed switch direction (-1 OFF switch, 1 ON switch): 1; higher = weaker reporter binding
Summary of the method: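 Stalled E. coli RNA polymerase transcribed designed RNA switches on Illumina chips, which were then titrated with SNAP-549-labelled MS2 coat protein, doubling from 0.7 or 1.5 nM to 3 µM. Steps lasted from 0.8–1.5 h at the lowest concentration to 10–20 min at the highest. The apparent KD is each design's median over clusters of curve-fitted normalised fluorescence.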

[1] = input ligand: microRNA oligo, concentration not stated
[2] = Eterna round: R95, input ligand: FMN 200 uM
[3] = Eterna round: R95, input ligand: microRNA oligo, concentration not stated
[4] = Eterna round: R95, input ligand: none

Row | Sequence | apparent KD of MS2 coat protein (input ligand: FMN 200 uM) [nM] | apparent KD of MS2 coat protein [1] [nM] | apparent KD of MS2 coat protein (input ligand: none) [nM] | apparent KD of MS2 coat protein [2] [nM] | apparent KD of MS2 coat protein [3] [nM] | apparent KD of MS2 coat protein [4] [nM]
1 | UUGAAGAAUUAAGGAUAUCGAGUCAAGAUGUUAAACAUGAGGAUCACCCAUGUGGGUUGCGGUAUCGAGAAGGUAAAUAAGAAG [Mat - Same State NG 2 - JL mod - D54] (Eterna round: R96, puzzle: Same State NG 2) | 44.3 | 29.6 | 44.8 |  |  | 
2 | UGUUAACAUGAGGAUCACCCAUGUCAAAUGAAUCGAGGAUAUGGGAAGUAAUAAGAGAAACUAGAAGGCGAAGUUG [Altered State 1-2 - Jieux - Same State 1] (puzzle: Same State 1) |  |  |  | 276 | 353 | 192
3 | GUGGUGUAGAUACAGGAUAUGUUGCUCGUAACAUGAGGAUCACCCAUGUAUCUAUGAGAUUAAAUGCAGAAGGGUGCACACCACA [Mat - Same State 2 - Mod of UCT - D72] (puzzle: Same State 2) |  |  |  | 24 | 460 | 297
4 | UUUAAACAUGAGGAUCACCCAUGUUUUUUCAUGGGAGGAUAUCUAAGUUAAUUAUAUUAAGGAGAAGGCCUAUUUU [× ×•×ª×• ×ž×“×™× ×” × ×—×ª-05] (puzzle: Same State 1) |  |  |  | 111 | 48.8 | 53.1
5 | GCUGCGAUUAACGCCUACAUGAGGAUCACCCAUGUAUGUAGGCAGGAUAUCGUUUGCUUUGCAAACGAGAAGGGCUGUAGUAGC [salish99_SSNG3_R04_004] (Eterna round: R96, puzzle: Same State NG 3) | 39.4 | 68.4 | 86.9 |  |  | 
6 | CCGUUGAUGGGACAGGAUAUGACUGUCGUCACAUGAGGAUCACCCAUGUCCCGGCAAUGCCACCGUUAGAAGGGUCCCGUCUCGG [Edraedbibe] (puzzle: Same State 2) |  |  |  |  | 12 | 
7 | AGUUGUGGAAAACUAUAGCAAAAGUAUGUACAUGAGGAUCACCCAUGUCAUGUACAAGCUUUUUGCUCGUCUUAAAA [ak 4 mod of one Eli's designs.] (puzzle: Sensor for hsa-mir-208a) |  |  |  | 23 | 21 | 23.3
8 | GCGAUAUGAUGCUACAUGAGGAUCACCCAUGUAGCGACAGCUAAGGAUAUUGGAAAGGGAGGAGACGAGAAGGUAGGGUCACGC [AK SSNG3-V2-24.1] (Eterna round: R96, puzzle: Same State NG 3) | 11.5 | 11.6 | 17.2 |  |  | 
9 | GCCGCACAUGAGGAUCACCCAUGUAAUUACAUGGGAGGAUAUCAGUGCUCGAAAGAGCACUGAGAAGGCCUGUGGC [SS1 - Omei A v2] (puzzle: Same State 1) |  |  |  | 399 | 31.9 | 39
10 | AGUCCAGCGAAAGCUGGACAAAAGCAUGUACAUGAGGAUCACCCAUGUUCAUGUACAAGCUUUUUGCUCGUCUUAAA [Mat - Sensor - JL mod - D95] (Eterna round: R96, puzzle: Sensor for hsa-mir-208a) | 485 | 14.1 | 467 |  |  | 
11 | UUUAGCGUUACAGGAUAUGGUGAGGAUCACCCACUAGAAGGGUAAACAUGUGCGUCGGACAUGAGGAUCACCCAUGUAGGGCGU (Eterna round: R96, puzzle: Same State NG 1) | 16.5 | 22.2 | 35.2 |  |  | 
12 | AACAGUCGGCGAGGAUAUGGACGUACGGACUAACCCAUACGGCUCACAUGAGGAUCACCCAUGUUCUAGAAGGCGCCACUGAAA [Soisce] (Eterna round: R96, puzzle: Same State NG 2) | 18.1 | 22.8 | 66.7 |  |  | 
13 | AGUCCAGCCUGAGCUGGACAAAAGCAUGUACAUGAGGAUCACCCAUGUCAUGUACAAGCUUUUUGUUCGUCUUAAAA [Zipper 46 - 12] (puzzle: Sensor for hsa-mir-208a) |  |  |  | 794 | 14.8 | 500
14 | GAGAGACAUGAGGAUCACCCAUGUAGAAUAGAACAAGGAUAUGUGGAAGGCGGAGGAGAGACAGAAGGUGUAGGAA [JR_SS1_Sub054] (puzzle: Same State 1) |  |  |  | 62.5 | 76.8 | 84.9
15 | AAUUCACGAGCACAGGAUAUGCUUGCCAACACAUGAGGAUCACCCAUGUCGGGCUACGAAUAAGAGCAGAAGGGUGACUCAUGAU [Atesusgela] (puzzle: Same State 2) |  |  |  | 16.8 | 19.2 | 13.9
16 | UCUGCAAUUAACGCCUACAUGAGGAUCACCCAUGUAUGUAGGCAGGAUAUCGUUUGCUUUGCAAACGAGAAGGGCUGUAGUAGC [salish99_SSNG3_R04_001] (Eterna round: R96, puzzle: Same State NG 3) | 52.4 | 49.2 | 61.6 |  |  | 

Row | Sequence | apparent KD of MS2 coat protein (input ligand: FMN 200 uM) [nM] | apparent KD of MS2 coat protein [1] [nM] | apparent KD of MS2 coat protein (input ligand: none) [nM] | apparent KD of MS2 coat protein [2] [nM] | apparent KD of MS2 coat protein [3] [nM] | apparent KD of MS2 coat protein [4] [nM]
17 | UGUUGUAUUACAGGAUAUCUAAUAUUUUUAUUUAGAGAAGGGUAUUCACAUGAGGAUCACCCAUGUAUAUACGAGGAAGUUGUG [JMF's solution 8] (Eterna round: R96, puzzle: Same State NG 1) |  | 24.6 |  |  |  | 
18 | CGCCAGAGAGCAGGAUAUGGGCCACGGCCUAAGGGCUGUGGACUCACAUGAGGAUCACCCAUGUCCCAGAAGGGCUCCUGGCUA [Usarbebi] (Eterna round: R96, puzzle: Same State NG 2) | 18.1 | 128 | 174 |  |  | 
19 | UUUAGUUGCGGGCAGGAUAUGUAUUAAAAUACAUGAGGAUCACCCAUGUGCGGGUAUAACACCCGAUAGAAGGGCCAAUCGCGAC [Laonerce - 11] (puzzle: Same State 2) |  |  |  | 20.9 | 53.6 | 71.9
20 | GAAGGAUGAGCGUAGGAUAUAGGAGGAGUGACAUGAGGAUCACCCAUGUGGUAGGAGGGAGGGUACUAGAAGGACGAGGAAGAGG [JR_SS2_Sub069] (Eterna round: R96, puzzle: Same State 2) | 102 | 49.7 | 84 |  |  | 
21 | UCUUGGUUUUUGCUCGUUUUUUGUGUUGAACAUGAGGAUCACCCAUGUAUUGUACGAUCCAAUUUGAUAAUGGUCCG [JMF 61] (puzzle: Sensor for hsa-mir-208a) |  |  |  | 44.2 | 34.4 | 48.7
22 | AUAGUUGCUGAAGGAUAUGAUGAGGAUCACCCAUCAGAAGGUUGGCUAUUGGGUGGACAUGAGGAUCACCCGUGUUCUUUGGUA (Eterna round: R96, puzzle: Same State NG 1) | 48.6 | 59.1 | 82.4 |  |  | 
23 | AGUCCAGCCUGAGCUGGACAAAAGCAUGUACAUGAGGAUCACCCAUGUCAUGUACAAGCUUUUUGCUCGUCUUAUAA [Mat - hsa-mir-208a - Mod of JL - D25] (puzzle: Sensor for hsa-mir-208a) |  |  |  | 643 | 14.9 | 704
24 | GCUAGUAUUAUUGCUAACAUGAGGAUCACCCAUGUAUGUUGGCAGGAUAUCGUUUGCAAAGCAAACGAGAAGGGCUAAACUAGC [Mat - Same State NG 3 - JL Mod - D13] (Eterna round: R96, puzzle: Same State NG 3) | 27.7 | 75.6 | 98.8 |  |  | 
25 | CAAACUUAGUAGGGUAGGUACCCAGGACGACAUGAGGAUCACCCAUGUAAGAGCUUUUUGCUCGUCGUCAACAGUUG [JR_SHM208a_Sub019] (puzzle: Sensor for hsa-mir-208a) |  |  |  | 19.8 | 22.5 | 19.8
26 | GACAAUCUAUCUCAGGAUAUCAUGUCAAAGACAUGAGGAUCACCCAUGUACCAGGAAACUGGUUAUGAGAAGGGAGAUAGAUUGG [Mat - Same State 2 - Mod - D27] (puzzle: Same State 2) |  |  |  | 179 | 15.7 | 5660
27 | GUUAAACAUGAGGAUCACCCAUGUAAUAAUAUGGGAGGAUAUGCGAAAUUAAUUAAUUAAGCAGAAGGCCUAAUUG [Mat - Same State 1 - D98] (puzzle: Same State 1) |  |  |  | 38.3 | 148 | 217
28 | AGUCCUGCCUGAGCAGGACAAAAGCAUGUACAUGAGGAUCACCCAUGUCAUGUACAAGCUUUUUGCUCGUCUUAAUA [Mat - hsa-mir-208a - Mod of JL - D41] (Eterna round: R96, puzzle: Sensor for hsa-mir-208a) | 624 | 13.7 | 735 |  |  | 
29 | CAUACGCGGAGAGGAUAUCGCAGGGUAACGGUAAGUGCCCGAUGACAUGAGGAUCACCCAUGUAUCGAGAAGGCUCCUCACCCU [Eternabot solution 22] (Eterna round: R96, puzzle: Same State NG 2) | 10.6 | 7.9 | 15.1 |  |  | 
30 | UAAAGAAAGCGAGGAUAUAGCCCAUGUGAAGAACUAGAAGGCGCAGACAUGAGGAUCACCCAUGUGUUCAUGAGGAGGAGGACA [Kawasakiqro] (Eterna round: R96, puzzle: Same State NG 1) | 88.6 | 51.9 | 57.7 |  |  | 
31 | UAAAGCGACGUAGGAUAUCCUCUACAUGCGUAAGGAGAAGGAUGCGCAACAUGAGGAUCACCCAUGUAAAACCAGCACUGCUGG [Isaerte] (Eterna round: R96, puzzle: Same State NG 1) | 71.9 | 22.5 | 36.7 |  |  | 
